According to patent US20200399381A1 (I MAB BIOPHARMA US, published 2020):

Key:
[1] = target: T1, human IFNAR-1 on cells (human, UniProt P17181 28-557); assay: cell-based or functional assay
T1 sequence (looked up): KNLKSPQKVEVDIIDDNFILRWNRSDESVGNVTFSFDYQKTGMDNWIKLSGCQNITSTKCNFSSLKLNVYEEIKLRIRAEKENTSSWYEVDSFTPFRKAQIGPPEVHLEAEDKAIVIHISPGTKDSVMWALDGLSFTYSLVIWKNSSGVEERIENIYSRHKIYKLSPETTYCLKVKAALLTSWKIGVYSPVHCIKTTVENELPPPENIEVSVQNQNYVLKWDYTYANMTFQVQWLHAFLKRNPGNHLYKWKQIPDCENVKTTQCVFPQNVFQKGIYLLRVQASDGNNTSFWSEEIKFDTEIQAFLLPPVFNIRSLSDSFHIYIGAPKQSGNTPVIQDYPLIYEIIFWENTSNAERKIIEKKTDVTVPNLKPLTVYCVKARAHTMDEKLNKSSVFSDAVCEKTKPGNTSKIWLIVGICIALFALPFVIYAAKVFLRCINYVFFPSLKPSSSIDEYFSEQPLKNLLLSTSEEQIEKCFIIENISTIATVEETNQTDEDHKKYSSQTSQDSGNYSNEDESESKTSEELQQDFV

[2] = target: T2, recombinant His-tagged human IFNAR-1-ECD protein (human, UniProt P17181 28-436); assay: ELISA, coated His-tagged IFNAR-1
T2 construct: extracellular domain; the Biacore text says His-tagged human IFNAR-1-ECD; also called His-tagged IFNAR-1; hIFNAR-1 protein; not shown: His tag
T2 sequence (looked up): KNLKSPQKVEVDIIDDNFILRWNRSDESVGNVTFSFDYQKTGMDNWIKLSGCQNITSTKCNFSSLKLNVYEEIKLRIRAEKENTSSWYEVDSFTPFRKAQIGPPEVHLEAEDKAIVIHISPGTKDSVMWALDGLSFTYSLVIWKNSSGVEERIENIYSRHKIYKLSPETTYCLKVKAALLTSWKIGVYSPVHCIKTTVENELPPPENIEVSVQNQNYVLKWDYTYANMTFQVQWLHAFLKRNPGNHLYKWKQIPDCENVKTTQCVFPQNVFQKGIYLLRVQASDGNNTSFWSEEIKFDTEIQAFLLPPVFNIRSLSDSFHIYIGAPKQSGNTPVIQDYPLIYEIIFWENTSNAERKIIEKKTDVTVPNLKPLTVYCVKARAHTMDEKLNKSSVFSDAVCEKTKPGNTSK
Description: This example tested the binding properties of the anti-IFNAR-1 mouse antibodies to the human IFNAR-1 proteins by ELISA assay. In short, His-tagged IFNAR-1 was coated at 0.5 μg/ml overnight and then blocked by 5% BSA in PBS. Serial diluted anti-IFNAR-1 antibodies were incubated with the coated antigen for 1 h at room temperature. The resulting plates were washed with PBS/T and incubated with goat anti-mouse IgG-HRP for 1 h at room temperature. The plates were developed with TMB substrate and analyzed by spectrophotometer at OD 450-630 nm.

[3] = target: T3, human IFNAR-1 protein (form not stated) (human, UniProt P17181 28-436, limits assumed); assay: affinity ranking of expressed humanized 485G10 IgGs (method not named)
T3 construct: bispecific ELISA
T3 sequence (looked up): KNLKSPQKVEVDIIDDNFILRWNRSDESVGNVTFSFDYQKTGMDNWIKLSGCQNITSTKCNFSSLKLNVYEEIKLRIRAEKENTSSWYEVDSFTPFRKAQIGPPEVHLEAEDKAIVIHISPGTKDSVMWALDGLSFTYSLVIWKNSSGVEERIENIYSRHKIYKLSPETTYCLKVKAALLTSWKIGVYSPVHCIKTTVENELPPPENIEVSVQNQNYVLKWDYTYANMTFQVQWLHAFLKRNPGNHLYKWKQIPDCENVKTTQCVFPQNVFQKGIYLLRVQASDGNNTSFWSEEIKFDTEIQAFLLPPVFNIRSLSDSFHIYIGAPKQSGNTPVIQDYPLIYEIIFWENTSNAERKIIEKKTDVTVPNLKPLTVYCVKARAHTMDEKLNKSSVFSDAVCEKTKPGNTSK

[4] = target: T3, human IFNAR-1 protein (form not stated); assay: affinity measurement of purified IgG at different concentrations (method not named)

Row | Binder | EC50 (nM), inhibition of IFNα2b-induced SEAP reporter in HEK-Blue IFNα/β cells [1] [nM] | EC50 [2] [nM] | Kd [3] [nM] | koff [3] [s⁻¹] | kon [3] [M⁻¹ s⁻¹] | Kd [4] [nM] | koff [4] [s⁻¹] | kon [4] [M⁻¹ s⁻¹]
1 | 106A7 (antibody, V domains shown, Hybridoma-derived monoclonal antibody) VH: EVQLQQSGADLVKPGASVKLSCTTSGFNIKDYYMHWVNQRTEQGLEWIGRIDPEDGETKYAPKFQGKATITADTSSNTAYLQLSSLTSEDTAVYYCARDWGHSFDYWGQGTTLTVSS VL: DIVMTQSQKFMSTSVGDRVSVTCKASQNVGTTVAWYQQKPGQSPKTLIYSASYRYSGVPDRFTGSGSGTDFTLTISNVQSEDLAEYFCQQYNSYTFGGGTKLEMK | 3.52 | 0.099 | – | – | – | – | – | –
2 | 370E5 (antibody, V domains shown, Hybridoma-derived monoclonal antibody) VH: EVQLQQSGAELVKPGASVKLSCTASGFNIKDYYIHWVKQRTEQGLEWIGRIDPEDGETKYAPKFQGKATITADTSSNTAYLQLSSLTSEDTAVYYCARFGGLTAMDYWGQGTSVTVSS VL: DIVMTQSQKFMSTSVGDRVSVTCKASQNVGTNVAWYQQKPGQSPKALIYATSYRYSGVPDRFTGSGSGTDFTLTISNVQSEDLAEYFCQQYNNYPYTFGGGTKLEIK | 2.17 | 0.052 | – | – | – | – | – | –
3 | 392D6 (antibody, V domains shown, Hybridoma-derived monoclonal antibody) VH: AVQLQQSGTELVKPGASVKLSCSASGFNIKDYYVHWVKQKTEQGLEWIGRIDPEDGETKYAPKFQGKATVTADTSSNTAYMQLSSLTSEDTAVYYCTRFGGLDAMDYWGQGTSVTVSS VL: DIVMTQSQKFMSTSVGDRVSVTCKASQNVGTNVAWYQQKPGQSPKPLIYSTSYRYNGVPDRFTGSGSGTEFTLTISNVQSEDLAEYFCQQFNRYPYTFGGGTKLEIK | 0.824 | 0.054 | – | – | – | – | – | –
4 | 104A3 (antibody, V domains shown, Hybridoma-derived monoclonal antibody) VH: EVQLQQSGAELVKPGASVKVSCTGSGFNIKDYYIHWVKQRTEQGLEWIGRIDPEDGETKYAPKFQGKATITSDTSSNTAYLQLSSLTSGDTAVYFCARYDGYYCFDYWGQGTTLTVSS VL: DIVMTQSQKFMSTSVGDRVSVTCKASQNVGTNVAWYQQKPGQSPKPLIYSTSYRYSGVPDRFTGSGSGTDFTLTISNVQSADLAAYFCQQYNNYPYTFGGGTRLEIK | 1.31 | 0.056 | – | – | – | – | – | –
5 | 107E12 (antibody, V domains shown, Hybridoma-derived monoclonal antibody) VH: EVQLQQSGAEFVKPGASVKLSCTASGFNIKDYYIHWVTQKTEQGLEWIGRIDPEDGETKYAPKFQDKATITADSSSNTAYLQLSSLTSVDTAVYFCSREGSFTGWFPYWGQGTLVSVSA VL: DIVMTQSQKFMSTSVGDRVSVTCKARQSVGTYVAWYQQKPGQSPKALIYSTSYRYNGVPDRFTGSGSGTDFTLTISNVQSEDLADYFCQQYHSYPYTFGGGTKLEIK | 1.21 | 0.075 | – | – | – | – | – | –
6 | 485G10 (antibody, V domains shown, Hybridoma-derived monoclonal antibody; also called mouse antibody 485G10) VH: EVQLQQSGAELVKPGASVKLSCTGSGFNIKDYYIHWVKQRTEQGLEWIGRIDPEDGETKYAPKFQGKATITADTSSNTAYLQLSSLTSEDTVVYYCGRYHGYWALDYWGQGTSVTVSS VL: DIVMTQSQKFMSTSVGDRVSVTCKTSQNVGTNVAWYQQKPGQSPKPLIYSTSYRYSGVPDRFTGSGSGTDFTLIISNVQSEDLAEYFCHQYFSYPYTFGGGTLLEIK | 0.286 | 0.015 | – | – | – | – | – | –
7 | 124D12 (antibody, V domains shown, Hybridoma-derived monoclonal antibody) VH: EVQLQQSGAELVKPGASVKVSCTGSGFNIKDYYIHWVKQRTEQGLEWIGRIDPEDGETKYAPKFQGRATITSDTSSNTAYLQLSSLTSGDTAVYYCARYDGYYCFDYWGQGTTLTVSS VL: DIVMTQSQKFMSTSVGDRVSVTCKASQNVGTNVAWYQQKPGQSPKPLIYSTSYRYSGVPDRFTGSGSGTDFTLTISNVQSADLAAYFCQQYNNYPYTFGGGTRLEIK | 0.981 | 0.062 | – | – | – | – | – | –
8 | 402G3 (antibody, V domains shown, Hybridoma-derived monoclonal antibody) VH: QVQLQQSGAELVKPGSSVKISCKASGFTFTSHFIHWIKQQPGNGLKWIGWIYPGDDDTEYNHKFNGKATLTADKSSSTAYMHLSSLTSEDSAVYFCARRVEYYNGGFAYWGQGTLVTVSS VL: DVQMTQSPSYLAAPPGESVSISCKASKNIRNNLGWYQERPGKTPNLLIHSGSTLQSGAPSRFSGGGSGTDFTLTIRSLESEDSAVYYCQQYDQYPLTFGSGTKLEIK | 1.27 | 0.137 | – | – | – | – | – | –
9 | 485G10-H1L3 (antibody, V domains shown, Humanized IgG expressed in HEK293; also called VH1 + VL3 (485G10)) VH: QVQLVQSGAEVKKPGASVKVSCKASGFNIKDYYIHWVRQAPGQGLEWMGRIDPEDAETKYAPKFQGRVTMTADTSISTAYMELSRLRSDDTVVYYCARYHGYWALDYWGQGTLVTVSS VL: DIQMTQSPSSLSTSVGDRVTITCKTSQNVGTNVAWYQQKPGKAPKPLIYSTSYRYSGVPSRFSGSGSGTDFTLTISSVQPEDFATYYCHQYFSYPYTFGPGTKLDIK | – | – | 0.325 | 0.000101 | 311000 | 1.24 | 0.000232 | 187000
10 | 485G10-H1L2 (antibody, V domains shown, Humanized IgG expressed in HEK293; also called VH1 + VL2 (485G10)) VH: QVQLVQSGAEVKKPGASVKVSCKASGFNIKDYYIHWVRQAPGQGLEWMGRIDPEDAETKYAPKFQGRVTMTADTSISTAYMELSRLRSDDTVVYYCARYHGYWALDYWGQGTLVTVSS VL: DIQMTQSPSSLSTSVGDRVTITCKTSQNVGTNVAWYQQKPGKAPKPLIYSTSYRYSGVPSRFSGSGSGTDFTLTISSLQPEDFATYYCHQYFSYPYTFGPGTKVDIK | – | – | 0.652 | 0.000201 | 308000 | 1.55 | 0.000321 | 207000
11 | 485G10-H2L3 (antibody, V domains shown, Humanized IgG expressed in HEK293; also called VH2 + VL3 (485G10)) VH: QVQLVQSGAEVKKPGASVKLSCKASGFNIKDYYIHWVKQAPGQGLEWIGRIDPEDAETKYAPKFQGRVTMTADTSISTAYMELSRLRSDDTVVYYCGRYHGYWALDYWGQGTLVTVSS VL: DIQMTQSPSSLSTSVGDRVTITCKTSQNVGTNVAWYQQKPGKAPKPLIYSTSYRYSGVPSRFSGSGSGTDFTLTISSVQPEDFATYYCHQYFSYPYTFGPGTKLDIK | – | – | 0.848 | 0.000238 | 281000 | 1.96 | 0.000366 | 186000
12 | 485G10-H1L4 (antibody, V domains shown, Humanized IgG expressed in HEK293; also called VH1 + VL4 (485G10)) VH: QVQLVQSGAEVKKPGASVKVSCKASGFNIKDYYIHWVRQAPGQGLEWMGRIDPEDAETKYAPKFQGRVTMTADTSISTAYMELSRLRSDDTVVYYCARYHGYWALDYWGQGTLVTVSS VL: DIQMTQSPSSLSTSVGDRVTVTCKTSQNVGTNVAWYQQKPGKAPKPLIYSTSYRYSGVPSRFSGSGSGTDFTLTISSVQPEDFATYYCHQYFSYPYTFGPGTKLDIK | – | – | 0.66 | 0.000216 | 327000 | 1.32 | 0.000259 | 196000
13 | 430H6 (antibody, V domains shown, Hybridoma-derived monoclonal antibody) VH: QVTLKESGPGILQPSQTLSLTCTFSGFSLNTYGMGVGWIRQPSGKGLEWLANIWWDDDKYYNPSLKNRLTISKDTSNNQAFLKITNVDTADTATYFCARHPLPGYKDNYVVDAWGQGASVTVSS VL: DVVLTQTPGSLSVTLGDQASISCRSSQSLEYSDQYTYLEWYLQKSGQSPQLLIYGVSNRFSGVPDRFIGSGSGTDFTLKISRVEPEDLGVYYCFQATHDPYTFGAGTKLELK | 1.3 | 0.733 | – | – | – | – | – | –
14 | 487E3 (antibody, V domains shown, Hybridoma-derived monoclonal antibody) VH: EVQLQQSGAELVKPGASVKLSCSASGFNIKDCYIHWVKQRTEQGLEWIGRIDPEDGETKYAPKFQAKATITADTSSNTAYLQLNSLTSEDTAVYYCARHCNFLYFDYWGQGSTLTVS VL: DIVMTQSQKSMSTSLGDRVTVTCKASQNVGTIVAWYQLKPGQSPKTLIYSASYRSSGVPDRFTGSGSGTDFTLTISNVQSEDLAEYFCQQYNNYPVIFGSGTKLEIR | 0.161 | 0.028 | – | – | – | – | – | –
